Results as given in publication PMC5906681, “BRI1 and BAK1 interact with G proteins and regulate sugar-responsive growth and development in Arabidopsis” (Nature Communications, 2018).

B1: MBP-AGB1 (natural protein, Arabidopsis, UniProt P49177 1-377, looked up)
chain: MSVSELKERHAVATETVNNLRDQLRQRRLQLLDTDVARYSAAQGRTRVSFGATDLVCCRTLQGHTGKVYSLDWTPERNRIVSASQDGRLIVWNALTSQKTHAIKLPCAWVMTCAFSPNGQSVACGGLDSVCSIFSLSSTADKDGTVPVSRMLTGHRGYVSCCQYVPNEDAHLITSSGDQTCILWDVTTGLKTSVFGGEFQSGHTADVLSVSISGSNPNWFISGSCDSTARLWDTRAASRAVRTFHGHEGDVNTVKFFPDGYRFGTGSDDGTCRLYDIRTGHQLQVYQPHGDGENGPVTSIAFSVSGRLLFAGYASNNTCYVWDTLLGEVVLDLGLQQDSHRNRISCLGLSADGSALCTGSWDSNLKIWAFGGHRRVI
notes: AGB1, Arabidopsis G protein beta subunit; Cloned into the EcoR I and Pst I sites of pMAL-c2; also called G protein beta subunit; source: E. coli (pMAL-c2); not shown: MBP, N-terminal, kept
B2: MBP-AGG3 (natural protein, Arabidopsis, UniProt Q6AWT8 1-251, looked up)
chain: MSAPSGGGEGGGKESAAGGVSSSSLAPSSLPPPRPKSPPEYPDLYGKRREAARVQMLEREIGFLEGEIKFIEGVQPASRCIKEVSDFVVANSDPLIPAQRKSRRSFRFWKWLCGPCLSLVSFCCCCQSKCSCHLRKPKCCNCTSCSCIGSKCCDGSCCSNICCCPRLSCPSCSCFRGCWCSCPDMSCCIPSCFRSCSCTRPSCLNKKKSSCCSCNCKIRWSSCFSCPKVRLCSCCFCNCKNLCSNPCCLAF
notes: AGG3, Arabidopsis G protein gamma subunit 3; also called G protein gamma subunit; source: E. coli (pMAL-c2); not shown: MBP, N-terminal, kept
B3: MBP-AGG1 (natural protein, Arabidopsis, UniProt Q9FDX9 1-98, looked up)
chain: MREETVVYEQEESVSHGGGKHRILAELARVEQEVAFLEKELKEVENTDIVSTVCEELLSVIEKGPDPLLPLTNGPLNLGWDRWFEGPNGGEGCRCLIL
notes: AGG1, Arabidopsis G protein gamma subunit 1; also called G protein gamma subunit; source: E. coli (pMAL-c2); not shown: MBP, N-terminal, kept
B4: MBP-AGG2 (natural protein, Arabidopsis, UniProt Q93V47 1-100, looked up)
chain: MEAGSSNSSGQLSGRVVDTRGKHRIQAELKRLEQEARFLEEELEQLEKMDNASASCKEFLDSVDSKPDPLLPETTGPVNATWDQWFEGPKEAKRCGCSIL
notes: AGG2, Arabidopsis G protein gamma subunit 2; also called G protein gamma subunit; source: E. coli (pMAL-c2); not shown: MBP, N-terminal, kept

Target: T1, GST-fused BRI1 kinase domain (Arabidopsis, UniProt O22476 814-1196)
T1 construct: BRASSINOSTEROID … 1 (BRI1), Arabidopsis, kinase domain, residues 814-1196; also called GST-BRI1-KD; BRI1-KD; source: E. coli (pGEX-4T-1); not shown: GST, N-terminal, kept
T1 sequence (looked up): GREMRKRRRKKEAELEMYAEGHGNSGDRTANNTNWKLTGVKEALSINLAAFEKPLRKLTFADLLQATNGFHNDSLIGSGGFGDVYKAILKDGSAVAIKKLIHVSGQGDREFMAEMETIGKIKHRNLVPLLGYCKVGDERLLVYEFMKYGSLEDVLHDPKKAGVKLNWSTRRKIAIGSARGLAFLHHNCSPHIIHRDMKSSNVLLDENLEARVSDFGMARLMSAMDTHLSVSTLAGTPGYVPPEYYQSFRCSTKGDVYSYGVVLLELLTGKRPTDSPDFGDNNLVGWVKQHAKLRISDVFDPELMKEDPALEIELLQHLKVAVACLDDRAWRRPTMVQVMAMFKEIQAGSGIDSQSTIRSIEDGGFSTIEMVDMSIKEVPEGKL
Test: pull-down; about 15 μg GST fusion with about 30 μg MBP fusion in 900 μL TGH buffer (10% glycerol, 1% Triton X-100, 1.5 mM MgCl2, 150 mM NaCl, 1 mM EGTA, 50 mM HEPES, pH 7.5); 30 μL GST beads, about 1 h; immunoblot with anti-MBP and anti-GST
Conditions: both partners purified

Binding result, binds:
B1
B2
B3
B4
